In the supplement of paper PMC9112550, “Optimization of the antimicrobial peptide Bac7 by deep mutational scanning” (BMC Biology, 2022):

Test system: Escherichia coli TOP10
Assay: shrunken log2 fold change of peptide-encoding DNA abundance (4.5 h post-induction vs induction); higher = less antimicrobial activity (less host growth inhibition)
Settings: time post-induction: 4.5 h; library: site-saturation at positions 5, 18, 19, 20
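Note: peptides expressed intracellularly from a pBAD plasmid library in pooled LB shake-flask culture, induced with 0.3% L-arabinose, DNA abundance read by NGS, three biological replicates, DESeq2 with apeglm shrinkage.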

Row | Sequence | shrunken log2 fold change
1 | RRIRTRPPRLPRPRPRPRSHPRP | 0.109
2 | RRIRWRPPRLPRPRPRPTPPPRP | 0.639
3 | RRIRARPPRLPRPRPRPWDVPRP | 0.246
4 | RRIRCRPPRLPRPRPRPMKTPRP | -0.11
5 | RRIRSRPPRLPRPRPRPNNMPRP | -0.534
6 | RRIRRRPPRLPRPRPRPWGMPRP | 0.137
7 | RRIRNRPPRLPRPRPRPRFAPRP | 0.164
8 | RRIRARPPRLPRPRPRPTSRPRP | 0.119
9 | RRIRSRPPRLPRPRPRPKTSPRP | 0.187
10 | RRIRIRPPRLPRPRPRPWTVPRP | -0.15
11 | RRIRERPPRLPRPRPRPGEDPRP | -0.0649
12 | RRIRPRPPRLPRPRPRPMYMPRP | -0.0346
13 | RRIRFRPPRLPRPRPRPKFDPRP | -0.0676
14 | RRIRWRPPRLPRPRPRPTDNPRP | -0.17
15 | RRIRFRPPRLPRPRPRPPFIPRP | -0.236
16 | RRIRGRPPRLPRPRPRPVRKPRP | 1.72
17 | RRIRMRPPRLPRPRPRPCQHPRP | -0.188
18 | RRIRVRPPRLPRPRPRPFPIPRP | -0.39
19 | RRIRLRPPRLPRPRPRPHEAPRP | 0.107
20 | RRIRPRPPRLPRPRPRPADHPRP | -0.015
21 | RRIRKRPPRLPRPRPRPHYFPRP | -0.268
22 | RRIRFRPPRLPRPRPRPGVSPRP | 0.323
23 | RRIRVRPPRLPRPRPRPYHHPRP | -0.0938
24 | RRIRCRPPRLPRPRPRPIHNPRP | -0.725
25 | RRIRERPPRLPRPRPRPPMKPRP | -0.418

Row | Sequence | shrunken log2 fold change
26 | RRIRERPPRLPRPRPRPKHFPRP | -0.248
27 | RRIRERPPRLPRPRPRPTLRPRP | 0.383
28 | RRIRIRPPRLPRPRPRPRTQPRP | 0.106
29 | RRIRDRPPRLPRPRPRPCDFPRP | 0.0384
30 | RRIRTRPPRLPRPRPRPVTSPRP | -0.0276
31 | RRIRDRPPRLPRPRPRPILLPRP | -0.28
32 | RRIRLRPPRLPRPRPRPATVPRP | -0.138
33 | RRIRDRPPRLPRPRPRPSWLPRP | 0.339
34 | RRIRDRPPRLPRPRPRPGCAPRP | 0.968
35 | RRIRQRPPRLPRPRPRPVNLPRP | -0.014
36 | RRIRVRPPRLPRPRPRPCETPRP | 0.0572
37 | RRIRVRPPRLPRPRPRPPVDPRP | 0.0819
38 | RRIRMRPPRLPRPRPRPYAEPRP | 0.0571
39 | RRIRPRPPRLPRPRPRPTMMPRP | -0.216
40 | RRIRERPPRLPRPRPRPKDYPRP | 0.101
41 | RRIRARPPRLPRPRPRPMSQPRP | 0.235
42 | RRIRERPPRLPRPRPRPTQEPRP | 0.0237
43 | RRIRFRPPRLPRPRPRPCDKPRP | -0.0972
44 | RRIRIRPPRLPRPRPRPIYWPRP | -0.105
45 | RRIRVRPPRLPRPRPRPSQWPRP | 0.0963
46 | RRIRLRPPRLPRPRPRPFNNPRP | -0.426
47 | RRIRIRPPRLPRPRPRPMQPPRP | -0.0593
48 | RRIRLRPPRLPRPRPRPEPCPRP | 0.0808
49 | RRIRPRPPRLPRPRPRPRWGPRP | 0.509
50 | RRIRLRPPRLPRPRPRPHYAPRP | -0.133

Row | Sequence | shrunken log2 fold change
51 | RRIRCRPPRLPRPRPRPHNHPRP | -0.625
52 | RRIRHRPPRLPRPRPRPGQNPRP | -0.226
53 | RRIRTRPPRLPRPRPRPSFMPRP | -0.412
54 | RRIRIRPPRLPRPRPRPHNDPRP | -0.55
55 | RRIRFRPPRLPRPRPRPAGHPRP | 0.153
56 | RRIRERPPRLPRPRPRPMWYPRP | -0.379
57 | RRIRMRPPRLPRPRPRPHHLPRP | 0.0151
58 | RRIRTRPPRLPRPRPRPPNPPRP | 0.442
59 | RRIRYRPPRLPRPRPRPAMWPRP | -0.0439
60 | RRIRVRPPRLPRPRPRPGMVPRP | 0.0182
61 | RRIRTRPPRLPRPRPRPVEWPRP | 0.168
62 | RRIRMRPPRLPRPRPRPHKCPRP | 0.0429
63 | RRIRARPPRLPRPRPRPNSPPRP | -0.138
64 | RRIRWRPPRLPRPRPRPWFNPRP | -0.248
65 | RRIRIRPPRLPRPRPRPVEGPRP | -0.308
66 | RRIRKRPPRLPRPRPRPPIMPRP | -0.0359
67 | RRIRMRPPRLPRPRPRPDYFPRP | -0.121
68 | RRIRARPPRLPRPRPRPSVFPRP | 0.461
69 | RRIRERPPRLPRPRPRPGYQPRP | -0.00905
70 | RRIRYRPPRLPRPRPRPLWMPRP | -0.63
71 | RRIRIRPPRLPRPRPRPWFKPRP | -1.74
72 | RRIRSRPPRLPRPRPRPNGWPRP | 0.623
73 | RRIRSRPPRLPRPRPRPTRAPRP | 0.738
74 | RRIRDRPPRLPRPRPRPGSWPRP | 0.817
75 | RRIRDRPPRLPRPRPRPNVRPRP | -0.275
